Assay results taken from paper PMC7793522.

Molecular target: synthetic peptide on H-2Kb (mouse)
Experiment: data from [108]; method not given; soluble, other

Substance: YAe62
- Kd: 15 µM
